Assay results published in paper PMC11764342, “A Novel Nitrite Reductase from Acinetobacter haemolyticus for Efficient Degradation of Nitrite” (Biomolecules, 2025).

Substrate: O=NO
Test: purified protein
Format: biochemical, Acinetobacter haemolyticus
Details: dithionite-reduced methyl viologen as electron donor, 30 °C, optimum pH (printed as 7.5 in abstract, 7 in results; assay PBS pH 7.0), NaNO2 0.51-2.17 mmol/L

B1: AhNiR (Acinetobacter haemolyticus CIP 64.3 = MTCC 9819) (protein)
chain: MYLYTDFDQQLINQRVAQFRDQTERYLAGKLTEDEYRPLRLQNGLYVQRYAPMLRIAVPYGLMNTKQLRKIAEIATEYDRGYAHVSTRQNIQLNWPALEDVPDILEELATVQMHAVQTSGNCIRNTTTDQFAGVVAGEIADPRPTCELIRQWSTFHPEFAFLPRKFKIAVSALAETDRAATAFHDIGVYIVRNEAGEIGYKIMAGGGLGRTPIIGSVIRDFLPREDLIAYLEATLRVYNLHGRRDNKYKARIKILVKALTPEVFAQKVEAEFEHTREALKIQPEILKKLDEEFTPFDYQDLEDQDFTALFAEYPKFKQWFNVNTNAHKVKGYRIVTISLKRAGIAPGDMTSEEMNLIADLADKYTFGEFRTTHEQNISLVDVPQKDLFELWQTLEQNDMARAHIGFITDIICCPGGDFCSLANAKSIPISEAITRRFEDLDTIYNLGELDLNISGCMNACGHHHVGNIGILGVDKKGAEFYQITLGGNADHDASIGDILGPSFAADAVPDVIEEILNTYLDLRTEGERFIDTYRRVGIQPFKERAYA
notes: whole gene in pET28a (BamHI/XhoI), N-terminal His tag, E. coli BL21(DE3), Ni-NTA; predicted 61929 Da
Km: 1530 µM
